Laboratory results reported in patent publication US20060134709A1.
Where two headings read alike, the source gives them in different places.

How the values were obtained:
[1] = target: FcγRIIB-Fc fusion protein (human) (UniProt P31994); assay: BIAcore
[2] = target: soluble monomeric FcγRIIIA-linker-AVITAG (human) (UniProt P08637); assay: ELISA
[3] = target: FcγRIIIA 158V (human) (UniProt P08637); assay: BIAcore
[4] = target: soluble monomeric FcγRIIIA-linker-AVITAG (human) (UniProt P08637); assay: BIAcore
[5] = target: soluble FcγRIIB (human) (UniProt P31994); assay: ELISA
[6] = target: FcγRIIB-Fc fusion protein (human) (UniProt P31994); assay: ELISA of FcγRIIB-Fc binding; OD listed beside the sensorgrams
[7] = target: FcγRIIB-Fc fusion protein (human) (UniProt P31994); assay: ELISA
[8] = target: FcγRIIB-Fc fusion protein (human) (UniProt P31994); assay: BIAcore; remark: listed apart in the source
[9] = target: soluble monomeric FcγRIIIA-linker-AVITAG (human) (UniProt P08637); assay: BIAcore: ch4-4-20 captured on BSA-FITC, FcγRIIIA at 200 nM and 800 nM, separate fits, average of the two concentrations

ch4-4-20 A330V (antibody) gave a Koff WT/Mut [1] of 0.61.

With ch4-4-20 A330V, G427M (antibody) the Koff WT/Mut [1] was 0.62.

Substance ch4-4-20 E233G (antibody) has a Koff WT/Mut [1] of 0.54.

ch4-4-20 E293V, Q295E, A327T (antibody) gave a fold increase vs wt [2] of 0.4 x, a fold vs wt [2] of 1.4 X and a Koff WT/Mut [3] of 0.86. The Kd [1] was 86 nM, the Koff WT/Mut [1] was 1.3 and the koff [1] was 0.074 s⁻¹. It also gave a Kd [4] of 195 nM and a koff [4] of 0.198 s⁻¹.

With ch4-4-20 F243I, V379L (antibody) the Kd [1] was 120 nM, the koff [1] was 0.113 s⁻¹ and the Kd [4] was 99.7 nM. For the same substance, the koff [4] was 0.105 s⁻¹.

ch4-4-20 F243I, V379L, G420V (antibody) gave a Kd [1] of 93.4 nM and a koff [1] of 0.101 s⁻¹.

Substance ch4-4-20 G316D, A378V, D399E (antibody) has a fold increase vs wt [5] of 14 x, a fold vs wt [5] of 14 X and a fold increase vs wt [2] of 1.5 x. The fold vs wt [2] was 1.5 X, the Kd [1] was 46 nM and the koff [1] was 0.06 s⁻¹. The Kd [4] was 72 nM and the koff [4] was 0.117 s⁻¹.

ch4-4-20 H268N, P396L (antibody) was tested, and the fold increase vs wt [5] was 4.5 x, the fold vs wt [5] was 4.5 X and the fold increase vs wt [2] was 2.2 x. It also gave a fold vs wt [2] of 2.2 X, a Koff WT/Mut [3] of 0.92 and a Kd [1] of 46.6 nM. For the same substance, the Koff WT/Mut [1] was 1.04, the koff [1] was 0.036 s⁻¹ and the Kd [4] was 178 nM. It also gave a koff [4] of 0.159 s⁻¹.

In the case of ch4-4-20 K248M (antibody), the Koff WT/Mut [3] is reported as 0.977, the Koff WT/Mut [1] is reported as 1.03 and the Kd ([1]; Fc variant MGFc 37) is reported as 100 nM. It also gave a koff ([1]; Fc variant MGFc 37) of 0.091 s⁻¹, a Kd ([1]; Fc variant MGFc 40) of 110 nM and a koff ([1]; Fc variant MGFc 40) of 0.09 s⁻¹.

In the case of ch4-4-20 K261N, K210M, P396L (antibody), the fold increase vs wt [5] is reported as 4.2 x, the fold increase vs wt [2] is reported as 2 x and the Koff WT/Mut [3] is reported as 1.29. For the same substance, the Koff WT/Mut [1] was 0.85.

Substance ch4-4-20 K288M, K334E (antibody) has an ELISA, OD [2] of 1.1 OD, a fold increase vs wt [2] of 3 x and a fold vs wt [2] of 3 X. The Kd [1] was 95.6 nM, the koff [1] was 0.089 s⁻¹ and the Kd [4] was 75.4 nM. The koff [4] was 0.1 s⁻¹, the kon [4] was 1.37e+06 M⁻¹ s⁻¹ and the ELISA, OD [6] was 0.13 OD.

ch4-4-20 K288N, A330S, P396L (antibody) gave an ELISA, OD [7] of 1.2 OD, an ELISA, OD [2] of 1 OD and a Kd [1] of 33.4 nM. The Kd [8] was 41.3 nM.

In the case of “ch4-4-20 K288R, T307A, K344E, P396L (antibody)”, the fold increase vs wt [5] is reported as 2.3 x, the fold increase vs wt [2] is reported as 4.1 x and the Koff WT/Mut [3] is reported as 1.27. It also gave a Koff WT/Mut [1] of 0.89.

ch4-4-20 K326E (antibody) was tested, and the ELISA, OD [7] was 1.25 OD, the fold increase vs wt [5] was 3.5 x and the ELISA, OD [2] was 1 OD. For the same substance, the fold increase vs wt [2] was 2 x, the Kd [4] was 92 nM and the koff [4] was 0.112 s⁻¹. The kon [4] was 1.23e+06 M⁻¹ s⁻¹, the Kd [8] was 51.7 nM and the koff [8] was 0.043 s⁻¹.

With ch4-4-20 K334E, T359N, T366S (antibody) the fold increase vs wt [2] was 1.5 x, the fold vs wt [2] was 1.5 X and the Kd [1] was 72 nM. For the same substance, the koff [1] was 0.11 s⁻¹, the Kd [4] was 55.2 nM and the koff [4] was 0.128 s⁻¹.

Work on ch4-4-20 K370N, S440N (antibody) yielded a fold increase vs wt [5] of 3.5 x and a fold increase vs wt [2] of 1 x.

Substance ch4-4-20 K392T, P396L (antibody) has a fold increase vs wt [5] of 2.5 x, a fold vs wt [5] of 2.5 X and a fold increase vs wt [2] of 4.5 x. It also gave a fold vs wt [2] of 4.5 X, a Koff WT/Mut [3] of 1.64 and a Kd [1] of 50 nM. It also gave a Koff WT/Mut [1] of 2.3, a koff [1] of 0.041 s⁻¹ and a Kd [4] of 84 nM. It also gave a koff [4] of 0.104 s⁻¹.

ch4-4-20 L242F, P396L (antibody) gave a fold increase vs wt [5] of 4.1 x and a fold increase vs wt [2] of 2.5 x.

For ch4-4-20 L358P, P396L (antibody), the fold increase vs wt [5] was 4.2 x and the fold increase vs wt [2] was 1.9 x.

ch4-4-20 L410H, P396L (antibody) gave a fold increase vs wt [5] of 4.5 x and a fold increase vs wt [2] of 1.7 x.

ch4-4-20 Mut 6 (S219V) (antibody) gave an ELISA, OD [7] of 0.35 OD, an ELISA, OD [2] of 0.6 OD and a Kd [4] of 264 nM. The koff [4] was 0.175 s⁻¹, the kon [4] was 667000 M⁻¹ s⁻¹ and the Kd [8] was 66.5 nM. It also gave a koff [8] of 0.06 s⁻¹ and a koff [9] of 0.173 s⁻¹.

In the case of ch4-4-20 N276Y (antibody), the Koff WT/Mut [1] is reported as 0.64.

In the case of ch4-4-20 N315I, V379M, T394M (antibody), the fold increase vs wt [5] is reported as 9 x, the fold vs wt [5] is reported as 9 X and the fold increase vs wt [2] is reported as 1 x. It also gave a fold vs wt [2] of 1 X.

ch4-4-20 N384K, P396L (antibody) showed a fold increase vs wt [5] of 5.2 x and a fold increase vs wt [2] of 2.2 x.

ch4-4-20 P217A, T359A, P396L (antibody) was tested, and the fold increase vs wt [5] was 4.8 x and the fold increase vs wt [2] was 1.5 x.

With ch4-4-20 P217S, A378V, S408R (antibody) the fold increase vs wt [5] was 4.5 x and the fold increase vs wt [2] was 2 x.

With ch4-4-20 P217S, P396L (antibody) the fold increase vs wt [5] was 4.5 x, the fold increase vs wt [2] was 1.6 x and the Koff WT/Mut [3] was 1.17. It also gave a Koff WT/Mut [1] of 0.95.

With “ch4-4-20 P217S, V305I, I309L, N390H, P396L (antibody)” the fold increase vs wt [5] was 7 x and the fold increase vs wt [2] was 2 x.

Substance ch4-4-20 P227S, K290E (antibody) has a fold increase vs wt [5] of 0.5 x and a fold increase vs wt [2] of 1 x.

ch4-4-20 P227S, P396L (antibody) gave a fold increase vs wt [5] of 4 x and a fold increase vs wt [2] of 1.5 x.

Work on “ch4-4-20 P244H, L358M, V379M, N384K, V397M (antibody)” yielded a fold increase vs wt [5] of 1.5 x and a fold increase vs wt [2] of 1.75 x.

Work on ch4-4-20 P244H, P396L (antibody) yielded a fold increase vs wt [5] of 4 x and a fold increase vs wt [2] of 2.5 x.

ch4-4-20 P247L (antibody) gave a fold increase vs wt [5] of 4 x and a fold increase vs wt [2] of 0.5 x.

Work on ch4-4-20 P247L, A330T, S440G (antibody) yielded a fold decrease vs wt [5] of 0.25 x and a fold increase vs wt [2] of 0.75 x.

With ch4-4-20 P247L, E389G (antibody) the fold increase vs wt [5] was 9 x and the fold increase vs wt [2] was 1.5 x.
